Target: T1, CD3-His蛋白(MP-5)
T1 construct: Immunogen and panning antigen; also called CD3蛋白
Experiment: BLI (Octet RED96) off-rate screening, sdAb-SASA from expression medium captured on BSA-coated biosensor, CD3 at 100 nM in solution, 30°C, 1:1 Langmuir model

koff: 1.43e-05 s⁻¹
B1: A30322 抗CD3单域抗体 (sdAb) (VHH)
VHH: EVQLVECGGGLVQAGGSLRLSCAASGRTFDTMGWFRQAPGKEREFVAAVRWSSGNTYYGNTVKGRFTISRDTATNTVYLEMNSLKHEDTAVYYCAARLAGRGAADHWGQGTQVTVSS
notes: Llama-derived sdAb; Tested as crude sdAb-SASA protein in E. coli expression medium / culture supernatant (FASEBA format), not purified; also called sdAb-SASA蛋白; not shown: SASA fusion partner from the pFASEBA vector (sdAb-SASA protein in expression medium)

Reference: patent CN106117361A (UNIV SUN YAT SEN, dated 2016)
